Source: patent US20120141451A1
pKd: −log10 of the molar value.

Assays:
[1] = target: rat NCAM F3 modules 1-2 (rat) (UniProt P13596); assay: SPR (BIAcore2000), soluble FGFR Ig2 on immobilized NCAM F3 modules 1-2
[2] = target: Ig2 module of mouse FGFR1 (IIIc isoform) (mouse) (UniProt P16092); assay: SPR (BIAcore2000), soluble NCAM F3 modules 1-2 on immobilized FGFR Ig2
Ig2 module of mouse FGFR1 (IIIc isoform) (mouse), sequence (P16092 other isoform, or with tags, fused parts or gaps limits assumed, form in doubt): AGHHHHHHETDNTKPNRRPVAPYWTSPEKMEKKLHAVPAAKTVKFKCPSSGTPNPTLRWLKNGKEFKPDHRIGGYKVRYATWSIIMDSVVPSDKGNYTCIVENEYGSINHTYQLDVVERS

rat NCAM F3 modules 1-2 (rat), sequence (P13596 other isoform, or with tags, fused parts or gaps limits assumed, form in doubt): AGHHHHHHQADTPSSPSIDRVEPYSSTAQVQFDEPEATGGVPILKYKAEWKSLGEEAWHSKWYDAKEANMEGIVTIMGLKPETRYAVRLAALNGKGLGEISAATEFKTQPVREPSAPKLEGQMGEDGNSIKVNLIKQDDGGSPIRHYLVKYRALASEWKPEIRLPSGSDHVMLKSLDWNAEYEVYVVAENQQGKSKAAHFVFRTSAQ

pKd [1] | pKd [2] | Substance
4.46 |  | Ig2 module of mouse FGFR1 (IIIc isoform) (from UniProt P16092 140-251) (receptor)
 | 4.92 | rat NCAM F3 modules 1-2 (from UniProt P13596 507-705) (receptor)
